Source: IntAct's records for PubMed 20125124

B1: Serine protease HTRA2, mitochondrial (Homo sapiens), O43464 (parent)
chain: MAAPRAGRGAGWSLRAWRALGGIRWGRRPRLTPDLRALLTSGTSDPRARVTYGTPSLWARLSVGVTEPRACLTSGTPGPRAQLTAVTPDTRTREASENSGTRSRAWLAVALGAGGAVLLLLWGGGRGPPAVLAAVPSPPPASPRSQYNFIADVVEKTAPAVVYIEILDRHPFLGREVPISNGSGFVVAADGLIVTNAHVVADRRRVRVRLLSGDTYEAVVTAVDPVADIATLRIQTKEPLPTLPLGRSADVRQGEFVVAMGSPFALQNTITSGIVSSAQRPARDLGLPQTNVEYIQTDAAIDFGNSGGPLVNLDGEVIGVNTMKVTAGISFAIPSDRLREFLHRGEKKNSSSGISGSQRRYIGVMMLTLSPSILAELQLREPSFPDVQHGVLIHKVILGSPAHRAGLRPGDVILAIGEQMVQNAEDVYEAVRTQSQLAVQIRRGRETLTLYVTPEVTE
partner: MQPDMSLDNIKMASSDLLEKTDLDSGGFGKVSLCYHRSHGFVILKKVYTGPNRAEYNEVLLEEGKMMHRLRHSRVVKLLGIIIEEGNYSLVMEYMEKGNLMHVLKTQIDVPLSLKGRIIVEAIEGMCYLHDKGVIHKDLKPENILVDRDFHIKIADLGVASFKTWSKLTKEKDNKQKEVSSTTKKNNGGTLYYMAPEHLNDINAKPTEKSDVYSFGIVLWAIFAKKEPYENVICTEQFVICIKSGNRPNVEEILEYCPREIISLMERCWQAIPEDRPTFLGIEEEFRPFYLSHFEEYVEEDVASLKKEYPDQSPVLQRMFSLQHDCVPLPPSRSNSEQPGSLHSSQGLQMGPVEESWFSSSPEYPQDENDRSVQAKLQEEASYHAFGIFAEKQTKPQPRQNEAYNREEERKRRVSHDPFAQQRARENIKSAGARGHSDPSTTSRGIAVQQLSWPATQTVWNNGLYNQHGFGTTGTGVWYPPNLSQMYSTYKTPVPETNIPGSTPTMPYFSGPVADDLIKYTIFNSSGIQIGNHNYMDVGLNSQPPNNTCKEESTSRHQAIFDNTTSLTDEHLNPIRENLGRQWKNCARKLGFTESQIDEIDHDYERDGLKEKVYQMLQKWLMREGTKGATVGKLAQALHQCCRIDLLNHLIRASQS

Variants of: B1
Details: with ripk1_mouse Ripk1, Q60855

| effect of a mutation on the interaction | Variant |
| --- | --- |
| disrupting interaction | S306A |
